Experimental data from the nanobody polyreactivity screen of Harvey et al. (2022).

Test: yeast display, Sf9 membrane polyspecificity reagent, FACS + sequencing; frameworks hold sequencing errors
How it was run: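 Polyreactivity labels are assigned by the sorting gate from which each nanobody was recovered. The gates were low and high (top ~1%), set on anti-HA fluorescence for expression and streptavidin fluorescence for reagent binding. Before sorting, galactose-induced (36–48 hours) yeast display cells were stained for 1 hour at 4 °C with 10% biotinylated, detergent-solubilized Sf9 membrane reagent.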

Sequence	polyreactivity (PSR sort gate)
QVQLVESGGGLVQAGGSLRLSCAAYGSTFFRYAMGWYRQAPGKERELVAAISASTGSTYYADSVKGRFTISRDNAKNTVYLQMNSLKPEDTAVYYCNAELGYGTNDNWYDYWGKGTQVTVSS	low polyreactivity
QFQLEESGGGLVQAGGSLRLSCDASGIIINYYAMGWYRQAPGKERELVAAIRISDTTYYADSVKGRFTISRDNAKNTVYLQMNSLKPEDTAVYYCNTLYYYYYGEVYVRDYDYWGQGTHVTVSS	low polyreactivity
QVQLVESGGGLVQAGGSLRLSCAASGSIFPRYAMGWYRQAPGKERELVAAITGSGSSTYYADSVKGRFTISRDNAKNTVYLQMNSLKPEDTAVYYCAALYGPGREYDYWGQGTQVTVSS	low polyreactivity
QVQLVESGGGLVQAGGSLRLSCSASGRTSDYYAMGWYRQAPGKERELVAAITSGGSTYYADSVKGRFTISRDNAKITVYFQMNSLKPEDTAVYYCAATWYWGWVFSYTSFDYWGLGTQVTVSS	low polyreactivity
QVQLVESGGGLVQAGGSLRLSCAASGSTFYNYAMGWYRQAPGKEREFVAAITRSGGSTYYADSVKGRFSISRDNAKNTVYLQMNSLKPEDTAVYYCNAGGHWYYHRYRGYYWGQGTQVTVSS	high polyreactivity
QVQLVESGGGIVQAGGSLRLSSAASGFTFYKYVMGWYRQSPGKERELVAAISYSSGSTYYADSVKGRFTISRDNAKNTVYLKMNSLKPDDTAVYYCAADSTYYGYAYYYWGQGSQVTVSS	high polyreactivity
QDQLVESGGGLVQAGGSLRLSCAASGRTFRRYALGWYRQAPGKETELVAVISGGGTYYADSVKGRFTISRDNAKNTVYLQMNSLKPEDTAVYYCAARYRQTRSPSYDYWGQGTQVTVSS	high polyreactivity
QVQLVESGGGLVQAGGSLRLSCAASGRTYRSYTMGWYRQAPGKERELVASISRRGGSTYYADSVKGRFTISRDNAKNTVYLQMNSLKPEDTAVYYCAAVNVYDAYEYWGQGTQVTVSS	high polyreactivity
QVQLVESGGGLVQAGGSLRLSCAASGSISWYYAMGWYRQAPGKERELVAAISDSGGDTYYADSVKGRFTISRDNAKNTVYLQMNSLKPEDTAVYYCATDTAYWLWVYALLEYWGQGTQVTVSS	low polyreactivity
QVQLVESGGALVQAGGSLRLSCAASGRIFLKYTMGWYRQAPGKERELVAAISRGGSTYYADSVKGRFTISRDNAKNTVYLQMNSLKPEDTAVYYCAATSYRRTGYNYWGQGTQVTVSS	high polyreactivity
QVQLVESGGGLVQAGGSLRLSCAASGSNYYWYAMVWSRQAPGKEMELVADITTSDGRTYYADSVKGRFTISRDNAKNTVYFLMNSLKPEDTAVYYCAADPFSGYGFQYYRGLYYWGQGTQVSVSS	low polyreactivity
QVQLVESGGGLVQAGGSHRLSCAASGFIFPYYTMGRYRQAPEKERELVAANRYSAGRTYYADSVKGRFTISRDIAKNTVYLQLNSLKPVDTAVYYCNAVSSGDMDYWGQGTQVTVSS	high polyreactivity
QVQLVESGGGLVQAGGSLRLSCAASGFIFPLYAMGWYRQAPGKERELVAAITWRGDTTSYADSVKGRFTISRDNAKNTVYLQMNSLKPEDTAVYYCAAVRYPSGYDYWGQGTQVTVSS	high polyreactivity
QVQLVESGGGLVQAGGSLRLSCAASGRTLKKNSMGWYRQAPGKERELVAAISTGGRTYYADSVKGRFTISRDNAKNTVYLQINSLKPEDTAVYYCNFQFLSWSTIWGNDYWGQGTQVNVSS	high polyreactivity
QVQLVESGGGLVQAGGSLRLSCAASGFIFDTYAMGWYRQAPGKERELVARINYSGGSTRYADSVKGRFTISRDNAKNTVYLQMNSLKPEDTAVYYCAAREFSYGFYYWGQGTQVTVSS	high polyreactivity
QVQLVESGGGLVQAGGSLRLSCAASGRIFSIYGMGWSRQAPGKEREFVASITYSGGSTYYADSVKGRFTISRDNAKNTVYLQMNSLQPEDTAVYYCAKYVFSAYDYWGQGTLVTVSS	low polyreactivity
QVQLVESGGGLVQAGGSLRLSCAASGSTFVGYFMGWYRQAPGKERELVAAITKIGGSTYYADSVKGSFTISRDNAKNNVYLQMNSLKPEDTAVYYCARTRSRWRYPIFYYWGQGTQVTVSS	high polyreactivity
QVQLVESGGGLVQAGGSLRLSCAASGRTFYYYAMGWYRQPPGKERELVAAIRWSTGSTYYADSVKGRFTISRVNAQITVYLQMNSLKPEDTAVYYCAADTWYIQWGYYWGQGTQVTVSS	low polyreactivity
QVQHVESGGGLVQAGGSLRLSCAASGRIFALYAMGWYRQAPGKERELVAAITSGSTYYADSVKGRFTISRDNAKNTVYLQMNSLKPEDTAVYYCAADLSYWRGGHSRNYWGQGTQVTVSS	low polyreactivity
QVQLVESGGGLVQAGGSLRLSCAASGSTFYIYDMGWYRQAPGKEREFVAAIDFSGSSTYADSVKGRFTISRDNAKNTVYFQINSLKPDDSAVFDCAAYQIYQYDGPYVYWGQGTQVTVSS	low polyreactivity
QVQLVESGGGLVQAGGSLRLSCAAYGRIFSTYAMGWYRQAPGKERELVAAINSIGGRTYYADSVKGRFTISRDNAKNTVYLQMNSLKPEDTAVYYCAAGYRTRRGLGYYYWGQGTQVTVSS	high polyreactivity
QVQLVESGGGLVQAGGSLRLSCAASGSIIRYNAMGWYRQAPGKERELVAAITKGAGSTYYADSVKGRFTISRDNAKNTVYLQMNSLKPEDTAVYYWNKARGSGHTYYSWGLGTQVTVSS	high polyreactivity

Sequence	polyreactivity (PSR sort gate)
QVQLVESGGGLVQAGGSLRLSCAASGSIFRGYAMGWYRPAPGKERELVAAISWSAGSTYYADSVKGRFTISRDNAKNTVYLQMNSLKPEDTAVYYCAARSPRRKGMDYWGQGTQVTVSS	high polyreactivity
QDQLVESGGGLVQAGGSLRLSCAASGSTFNAYAMGWYRQAPGKERQLVASITKSGGRTYYADSVKRRFTISRDNAKNTVYLQMNRLKPEDSAVYYCAARYVWRSTHHRGSTYDYWGQGTQVTVSS	high polyreactivity
QVQLVESGGGLVQAGGSLRLSCAASGSTFKAYAMGWYRQAPGKERELVAAITYNGGSTYYADSVKGRFTISRDNEKNTVYLQMNSLKPEDTAVYYCAKRETGRRDPRRSTQYRYEYWGQGTQVTVSS	low polyreactivity
QVQLVESGGGLVQAGGSLRLSCASSGIIYNQNTMGWYRQAPGKERELVAAITFSGGRTSYADSVKGRFTISRDNAKNTFYLQMNSLKPEDSAVYYCNKALWGLYGYWGHGTQVTVSS	low polyreactivity
QVQLVASGGGLVQAGGSLRISSAASGGIFPQYAMGWYRQAPGKERELVAAISRRGGSTYYADSVKGRFTISRDNAKNTVYLQMNSLKPEDTAVYFCNAGGSDYGVSNKYNSWGQGTQVTVSS	high polyreactivity
QVQLVESGGGLVQAGGSLRLSCAASGGTFRTYAMGWYRQAAGKERELVAAITGSGGRTYYADSVKGRFTISRDNAKNTVYLQMNSLKPEDTAVYDCNTGPVYQGYHWGQGTQVTVSS	high polyreactivity
QVQLQDSGGGLVQAGGSLRLNCATSGTIFVLWYMGCYRQAPGKERELVATINDGANTYYADSVKGRFTINRDNANSTVYLQMNSLQPEDSAVYYCSVYAIIVWGLGYWGQGTQVTVSS	high polyreactivity
QVQLVESGGGLVQAGGSLRLSCAASGRTFLLNAMGWYRQAPGKERELVAAISRGGSTYYADSVKGRFTISRDNAKNTVYLQMNSLKPEDTAVYYCAARFWISHTHWDAGDYWGQGTQVTVSS	low polyreactivity
QVQLVESGGGLVQAGGSLRLCCAAYGRTFRGNAMRLYTQAPGKERELVAVITSGDSTYYADSVKGRFTNSRDNAKNTVYLQMNSLKPEDTAVYYCAAYLWKSKRKLDYWGQGTQVTVTS	high polyreactivity
QVQLVESGGGLVQAGGSLRLSCAASGLIFLRYAMGWYRQAPGTERELVAVISSGGRTYYADSVKGRFTISRDNAKNTVYLQMNSLKPEDTAVYYCAARTRSYWGTYGSYHYDYWGQGTQVTVSS	high polyreactivity
QVQLVESGGGLVQAGGSLRLSCAASGRIFDKYTMGWYRQAPGTERELVAAISKSGSGTFYADSVKGRFTISRDNAKNTVYLQMNSLKPEDTAVYYCARVYTVGTGRSWRLDYWGQGTQVTVSS	high polyreactivity
QVQLVESGGGLVQAGGSLRISCAASGRTFRRYEMGWYREAPGKERELVASISSSAGSTYYADSVKGRFTISRDNAKNTVYFQMNSLKPEDTAVYYCAFVPTVYARSRYGYWGQGTQVTVSS	high polyreactivity
QVQLVESGGGLVQAGGILRLSCAASGRTVHNYVMAWYRQAPWNERELVAAITAGVGSTYYADSVKGRFTISRDNAKNTVYFQMNSLKPEDTAVYYCAARKVWGYTYGYPYYYWGQGTQETVSS	high polyreactivity
QVQLVESGGGLVQAGGSLRLSCAASGRTFGFNAMGWYRQAPGKERELVAAISSSSSSTYYADSVKGRFTISRDIAKNTVYLQMNSLKPEDTAVYYCAADIVYVTWFYYWGQGTQVTVSS	low polyreactivity
QVQLVESGGGLVQAGGSLRLSCAASGRTFRLYAMGWYRQAPGKERELVAAITRGGRTNYADSVKGRFTISRDNAKNTVYLQMNSLNPEDTAVYYCAARYVERHTDYYYWGQGTQVTVSS	low polyreactivity
QVQLVESGGGLVQAGGILRLSCAASGRIFYNYAMGWYRQAPGKERELGAAISGSGGSTYYADSVKGRFTISRDNAKNTVYLQMNSLKPEDTAVYYCSTSGPQYDSRNFDYWGQGTQVTVSS	low polyreactivity
QVQLVESGGGLVQAGGSLRLSCAASGSTFIFNAMGWYRQAPGKEWELVAGISSGSTYYADSVKGRFTISRDNAKNTVYLQMNSLKPEDTAVYYCATKLRRWRFYAAYDYWGQGTQVTVSS	high polyreactivity
QVQLVESGGGLVQAGGSLRLSCAASGFTYLYNAMGWYRQAPGKERELVASINSGGSTNYADSVKGRFTISRDNAKNSVYLQMNSLKPEDTAVYFCNAKRLVRKGDYWGQGTQVTVSS	low polyreactivity
QVHLVESGGGLVQAGGSLRLSSAASGRIFPWNAMGWYRQAPGKERELVAAISFSAGRTYYADSVKGRFTISRDNAKNTVYLQMNSLKPEDTAVYYCNARIGSRGVWTGIIGYEYWGQGTQVTVSS	low polyreactivity
QLQLVESGGGLVQAGGSLRLSCAASGITFGANTMGWYRQAPGTERELVAAITISGGITHYADSVKGRFTISRDNAKNTVYLQMNSLKPEDTAVYYCAAGAYWRLYPYRQRNGGRMYYWGQGTQVTVSS	low polyreactivity
QVQLVDSGGGLVQAGGSLRLSCAASGITFYVNAMGWYRQAPRKERELVASISTGGSTNYADSVKGRFTISRDNAKNTVYLQMNSLKPEDTAVYYCAARVDYHPSLRDYWGQGTQVTVSS	low polyreactivity
